The experiment addresses streptolysin O (SLO) isolated from group A Streptococcus (Streptococcus pyogenes (group A Streptococcus)) (UniProt P0C0I3). Briefly: other fluorescence titration; SLO at 2.0×10^−8 M mixed with HSA from 0 M to 4.0×10^−8 M; fluorescence between 300 nm and 400 nm, excitation 280; apparent Kd from Eq. 1.
Sequence of UniProt P0C0I3 (P0C0I3 34-571): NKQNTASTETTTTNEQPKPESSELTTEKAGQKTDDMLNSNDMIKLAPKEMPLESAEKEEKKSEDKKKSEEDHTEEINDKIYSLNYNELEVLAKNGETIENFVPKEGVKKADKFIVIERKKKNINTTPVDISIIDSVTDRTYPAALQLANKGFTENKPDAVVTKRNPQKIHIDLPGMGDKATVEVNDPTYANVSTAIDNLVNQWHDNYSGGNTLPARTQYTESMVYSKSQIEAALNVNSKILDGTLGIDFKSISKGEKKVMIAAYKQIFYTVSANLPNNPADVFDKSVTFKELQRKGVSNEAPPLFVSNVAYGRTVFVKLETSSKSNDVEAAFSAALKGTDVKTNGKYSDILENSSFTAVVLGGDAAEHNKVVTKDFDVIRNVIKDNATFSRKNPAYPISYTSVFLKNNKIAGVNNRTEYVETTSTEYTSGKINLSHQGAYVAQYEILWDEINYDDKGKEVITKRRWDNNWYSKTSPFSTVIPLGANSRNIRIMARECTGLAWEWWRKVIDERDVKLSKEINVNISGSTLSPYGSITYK

As to “L305A/F374A 6×His-tag-HSA (double mutant Leu305Ala/Phe374Ala) (natural protein)”, the Kd turned out to be 7.3 nM.

Values taken from publication PMC7752801.
